According to patent US20090170750A1 (Novo Nordisk, published 2009):

Biological target: purified recombinant human insulin receptor-exon 11 (human) (UniProt P06213)
Assay: competition with 125I-insulin (SPA)

Sequence of purified recombinant human insulin receptor-exon 11 (human) (P06213 other isoform, or with tags, fused parts or gaps limits assumed, form in doubt): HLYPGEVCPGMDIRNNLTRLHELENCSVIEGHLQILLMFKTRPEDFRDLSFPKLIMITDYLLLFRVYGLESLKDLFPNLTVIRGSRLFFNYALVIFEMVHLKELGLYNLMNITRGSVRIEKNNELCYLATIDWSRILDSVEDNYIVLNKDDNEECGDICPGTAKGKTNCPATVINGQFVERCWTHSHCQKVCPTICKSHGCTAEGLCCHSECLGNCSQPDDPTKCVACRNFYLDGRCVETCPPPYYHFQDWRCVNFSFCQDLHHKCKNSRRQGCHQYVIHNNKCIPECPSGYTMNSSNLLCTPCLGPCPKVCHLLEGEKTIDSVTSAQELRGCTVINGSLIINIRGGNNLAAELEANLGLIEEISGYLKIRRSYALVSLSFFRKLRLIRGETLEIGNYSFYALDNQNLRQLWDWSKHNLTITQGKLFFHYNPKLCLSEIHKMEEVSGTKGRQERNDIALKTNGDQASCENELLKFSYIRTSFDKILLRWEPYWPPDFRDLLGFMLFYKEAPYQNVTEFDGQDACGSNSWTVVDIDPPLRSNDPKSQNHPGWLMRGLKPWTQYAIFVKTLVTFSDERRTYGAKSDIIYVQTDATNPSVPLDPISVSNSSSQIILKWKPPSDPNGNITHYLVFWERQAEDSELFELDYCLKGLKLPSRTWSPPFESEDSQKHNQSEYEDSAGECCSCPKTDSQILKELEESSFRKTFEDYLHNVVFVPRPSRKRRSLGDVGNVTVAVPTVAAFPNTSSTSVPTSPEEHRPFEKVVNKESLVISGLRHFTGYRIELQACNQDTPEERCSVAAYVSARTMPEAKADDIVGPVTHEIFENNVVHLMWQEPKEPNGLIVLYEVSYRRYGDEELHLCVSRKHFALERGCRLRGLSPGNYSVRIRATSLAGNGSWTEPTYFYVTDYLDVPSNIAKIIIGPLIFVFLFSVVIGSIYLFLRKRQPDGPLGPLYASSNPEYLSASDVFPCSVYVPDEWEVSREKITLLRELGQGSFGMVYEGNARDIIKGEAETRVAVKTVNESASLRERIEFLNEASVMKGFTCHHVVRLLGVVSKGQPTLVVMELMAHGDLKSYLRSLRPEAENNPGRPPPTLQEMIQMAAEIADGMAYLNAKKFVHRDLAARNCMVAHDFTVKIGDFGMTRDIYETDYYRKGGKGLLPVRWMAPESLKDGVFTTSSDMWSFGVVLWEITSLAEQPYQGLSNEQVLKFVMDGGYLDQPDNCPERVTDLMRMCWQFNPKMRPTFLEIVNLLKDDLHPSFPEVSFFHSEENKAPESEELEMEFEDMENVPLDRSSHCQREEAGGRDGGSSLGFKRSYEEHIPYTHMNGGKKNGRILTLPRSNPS

Row | Substance | IR, binding relative to human insulin [%]
1 | single-chain insulin PAK 1723, connecting peptide VGSSRGK [A21G] (from UniProt P01308 25-53; P01308 90-110) (ligand) | 33
2 | single-chain insulin PAK 1733, connecting peptide VGSSSGK [A21G] (from UniProt P01308 25-53; P01308 90-110) (ligand) | 42
3 | single-chain insulin PAK 1734, connecting peptide VGLSSGK [A21G] (from UniProt P01308 25-53; P01308 90-110) (ligand) | 211
4 | single-chain insulin PAK 1738, connecting peptide VGSSSGK [A18Q] (from UniProt P01308 25-53; P01308 90-110) (ligand) | 89
5 | single-chain insulin PAK 1740, connecting peptide VGSSSGK [B1G_B3Q_A18Q_A21G] (from UniProt P01308 25-53; P01308 90-110) (ligand) | 90
6 | single-chain insulin PAK 1744, connecting peptide VGSSSGK [A18Q_A21G] (from UniProt P01308 25-53; P01308 90-110) (ligand) | 80
7 | single-chain insulin PAK 1762, connecting peptide AGMGSGP [A18Q_A21G] (from UniProt P01308 25-53; P01308 90-110) (ligand) | 20
8 | single-chain insulin PAK 1764, connecting peptide AGLGSGK [A18Q_A21G] (from UniProt P01308 25-53; P01308 90-110) (ligand) | 120
9 | single-chain insulin PAK 1767, connecting peptide AGRGSGP [A18Q_A21G] (from UniProt P01308 25-53; P01308 90-110) (ligand) | 28
10 | single-chain insulin PAK 1784, connecting peptide WASGSGK [A18Q_A21G] (from UniProt P01308 25-53; P01308 90-110) (ligand) | 23
11 | single-chain insulin PAK 1785, connecting peptide ASWGSGK [A18Q_A21G] (from UniProt P01308 25-53; P01308 90-110) (ligand) | 136
12 | single-chain insulin PAK 1787, connecting peptide VGLSSGQ [A18Q_A21G] (from UniProt P01308 25-53; P01308 90-110) (ligand) | 123
13 | single-chain insulin PAK 1788, connecting peptide VGLYSGK [A18Q_A21G] (from UniProt P01308 25-53; P01308 90-110) (ligand) | 323
14 | single-chain insulin PAK 1789, connecting peptide VGLRSGK [A18Q_A21G] (from UniProt P01308 25-53; P01308 90-110) (ligand) | 248
15 | single-chain insulin PAK 1790, connecting peptide VGLMSGK [A18Q_A21G] (from UniProt P01308 25-53; P01308 90-110) (ligand) | 261
16 | single-chain insulin PAK 1791, connecting peptide HGLYSGK [A18Q_A21G] (from UniProt P01308 25-53; P01308 90-110) (ligand) | 226
17 | single-chain insulin PAK 1796, connecting peptide AWSGSGK [A18Q_A21G] (from UniProt P01308 25-53; P01308 90-110) (ligand) | 102
18 | single-chain insulin PAK 1800, connecting peptide AGRGSGK [A18Q_A21G] (from UniProt P01308 25-53; P01308 90-110) (ligand) | 175
19 | single-chain insulin PAK 1802, connecting peptide AGRGK [A18Q_A21G] (from UniProt P01308 25-53; P01308 90-110) (ligand) | 25
20 | single-chain insulin PAK 1805, connecting peptide AGRGSGK [B3Q_A18Q_A21G] (from UniProt P01308 25-53; P01308 90-110) (ligand) | 83
21 | single-chain insulin PAK 1808, connecting peptide AGRGSGK [B1G_B3Q_A18Q_A21G] (from UniProt P01308 25-53; P01308 90-110) (ligand) | 86
22 | single-chain insulin PAK 1810, connecting peptide TGLGSGQ [A18Q_A21G] (from UniProt P01308 25-53; P01308 90-110) (ligand) | 73
23 | single-chain insulin PAK 1811, connecting peptide TGLGSGK [A18Q_A21G] (from UniProt P01308 25-53; P01308 90-110) (ligand) | 136

Row | Substance | IR, binding relative to human insulin [%]
24 | single-chain insulin PAK 1812, connecting peptide TGLGRGK [A18Q_A21G] (from UniProt P01308 25-53; P01308 90-110) (ligand) | 118
25 | single-chain insulin PAK 1816, connecting peptide AGLGSGQ [B3Q_A18Q] (from UniProt P01308 25-53; P01308 90-110) (ligand) | 37
26 | single-chain insulin PAK 1817, connecting peptide AGRGSGK [A21G] (from UniProt P01308 25-53; P01308 90-110) (ligand) | 63
27 | single-chain insulin PAK 1818, connecting peptide KGLGSGQ [B3Q_B29R_A18Q_A21G] (from UniProt P01308 25-53; P01308 90-110) (ligand) | 125
28 | single-chain insulin PAK 1821, connecting peptide TGLGSGK [B3Q_B29R_A18Q_A21G] (from UniProt P01308 25-53; P01308 90-110) (ligand) | 128
29 | single-chain insulin PAK 1824, connecting peptide GRGSGK [B1G_B3Q_A18Q_A21G] (from UniProt P01308 25-53; P01308 90-110) (ligand) | 75
30 | single-chain insulin PAK 1835, connecting peptide TGLGKGQ [B29E_A18Q] (from UniProt P01308 25-53; P01308 90-110) (ligand) | 50
31 | single-chain insulin PAK 1838, connecting peptide TGLGKGQ [B29R_A18Q] (from UniProt P01308 25-53; P01308 90-110) (ligand) | 113
32 | single-chain insulin PAK 1846, connecting peptide TGLGKGR [B29A_A18Q] (from UniProt P01308 25-53; P01308 90-110) (ligand) | 92
33 | single-chain insulin PAK 1847, connecting peptide TGLGKGR [B27E_B29A_A18Q] (from UniProt P01308 25-53; P01308 90-110) (ligand) | 82
34 | single-chain insulin PAK 1848, connecting peptide TGLGKGR [B27E_B29E_A18Q] (from UniProt P01308 25-53; P01308 90-110) (ligand) | 40
35 | single-chain insulin PAK 1849, connecting peptide TGLGKGR [B29E_A18Q] (from UniProt P01308 25-53; P01308 90-110) (ligand) | 60
36 | single-chain insulin PAK 1854, connecting peptide VGLYSGK [B29E_A18Q] (from UniProt P01308 25-53; P01308 90-110) (ligand) | 40
37 | single-chain insulin PAK 1855, connecting peptide VGLYSGK [B28D_A18Q] (from UniProt P01308 25-53; P01308 90-110) (ligand) | 221
38 | single-chain insulin PAK 1860, connecting peptide VGSSSGK [B3K_A18Q_A21G] (from UniProt P01308 25-53; P01308 90-110) (ligand) | 83
39 | single-chain insulin PAK 1864, connecting peptide TGLGSGK [B3K_A18Q_A21G] (from UniProt P01308 25-53; P01308 90-110) (ligand) | 301
40 | single-chain insulin PAK 1866, connecting peptide VGLSSGQ [A18Q] (from UniProt P01308 25-53; P01308 90-110) (ligand) | 196
41 | single-chain insulin PAK 1869, connecting peptide VGLSSGQ [B22K_B29A_A18Q] (from UniProt P01308 25-53; P01308 90-110) (ligand) | 69
42 | single-chain insulin PAK 1871, connecting peptide VGLSSGQ [B29A_A18K] (from UniProt P01308 25-53; P01308 90-110) (ligand) | 82
43 | single-chain insulin PAK 1875, connecting peptide VGLSSGQ [B28K_B29A_A18Q] (from UniProt P01308 25-53; P01308 90-110) (ligand) | 35
44 | single-chain insulin PAK 1876, connecting peptide VGLSSGQ [B27K_B29A_A18Q] (from UniProt P01308 25-53; P01308 90-110) (ligand) | 38
45 | single-chain insulin PAK 1877, connecting peptide TGLGSGK [B28D_A18Q] (from UniProt P01308 25-53; P01308 90-110) (ligand) | 140
46 | single-chain insulin PAK 1878, connecting peptide VGLSSGQ [B3K_A18K_A21G] (from UniProt P01308 25-53; P01308 90-110) (ligand) | 172
